Target: T1, CD3 epsilon homodimer protein (UniProt P07766 23-126)
T1 construct: also called CD3 (CD3 epsilon)
Experiment: SPR Biacore T200, antibody over immobilised CD3e homodimer;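 note: CD3 epsilon homodimer amine-coupled on a CM4 chip, run at 25 °C in HBS-EP+, Z = bound amount of each single-residue H chain variant over that of the parent antibody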

T1 sequence (P07766 23-126): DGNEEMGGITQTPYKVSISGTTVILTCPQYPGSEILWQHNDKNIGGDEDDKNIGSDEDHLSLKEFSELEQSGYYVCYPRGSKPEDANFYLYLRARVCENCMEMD

B1: CE115HA000 K52N one-arm antibody (antibody, human IgG1, kappa, L234A L235A, N297A, name in Kabat numbering)
heavy: QVQLVESGGGVVQPGRSLRLSCAASGFTFSNAWMHWVRQAPGKGLEWVAQINAKSNNYATYYAESVKGRFTISRDDSKNSLYLQMNSLKTEDTAVYYCRYVHYGAYYGVDAWGQGTTVTVSSASTKGPSVFPLAPSSKSTSGGTAALGCLVKDYFPEPVTVSWNSGALTSGVHTFPAVLQSSGLYSLSSVVTVPSSSLGTQTYICNVNHKPSNTKVDKKVEPKSCDKTHTCPPCPAPEAAGGPSVFLFPPKPKDTLMISRTPEVTCVVVDVSHEDPEVKFNWYVDGVEVHNAKTKPREEQYASTYRVVSVLTVLHQDWLNGKEYKCKVSNKALPAPIEKTISKAKGQPREPQVYTLPPSRCELTKNQVSLSCAVKGFYPSDIAVEWESNGQPENNYKTTPPVLDSDGSFFLVSKLTVDKSRWQQGNVFSCSVMHEALHNHYTQKSLSLSPDYKDDDDK
chain: EPKSSDKTHTCPPCPAPELLGGPSVFLFPPKPKDTLMISRTPEVTCVVVDVSHEDPEVKFNWYVDGVEVHNAKTKPREEQYNSTYRVVSVLTVLHQDWLNGKEYKCKVSNKALPAPIEKTISKAKGQPREPQVCTLPPSRDELTKNQVSLWCLVKGFYPSDIAVEWESNGQPENNYKTTPPVLDSDGSFFLYSKLTVDKSRWQQGNVFSCSVMHEALHNRYTQKSLSLSP
light: DIVMTQSPLSLPVTPGEPASISCRSSQSLVHSNRNTYLHWYQQKPGQAPRLLIYKVSNRFSGVPDRFSGSGSGTDFTLKISRVEAEDVGVYYCGQGTQVPYTFGQGTKLEIKRTVAAPSVFIFPPSDEQLKSGTASVVCLLNNFYPREAKVQWKVDNALQSGNSQESVTEQDSKDSTYSLSSTLTLSKADYEKHKVYACEVTHQGLSSPVTKSFNRGEC
notes: one-arm antibody
ratio of amounts bound (Z=Y/X vs CE115HA000): 0.34

B2: CE115HA000 K52R one-arm antibody (antibody, human IgG1, kappa, L234A L235A, N297A, name in Kabat numbering)
heavy: QVQLVESGGGVVQPGRSLRLSCAASGFTFSNAWMHWVRQAPGKGLEWVAQIRAKSNNYATYYAESVKGRFTISRDDSKNSLYLQMNSLKTEDTAVYYCRYVHYGAYYGVDAWGQGTTVTVSSASTKGPSVFPLAPSSKSTSGGTAALGCLVKDYFPEPVTVSWNSGALTSGVHTFPAVLQSSGLYSLSSVVTVPSSSLGTQTYICNVNHKPSNTKVDKKVEPKSCDKTHTCPPCPAPEAAGGPSVFLFPPKPKDTLMISRTPEVTCVVVDVSHEDPEVKFNWYVDGVEVHNAKTKPREEQYASTYRVVSVLTVLHQDWLNGKEYKCKVSNKALPAPIEKTISKAKGQPREPQVYTLPPSRCELTKNQVSLSCAVKGFYPSDIAVEWESNGQPENNYKTTPPVLDSDGSFFLVSKLTVDKSRWQQGNVFSCSVMHEALHNHYTQKSLSLSPDYKDDDDK
chain: EPKSSDKTHTCPPCPAPELLGGPSVFLFPPKPKDTLMISRTPEVTCVVVDVSHEDPEVKFNWYVDGVEVHNAKTKPREEQYNSTYRVVSVLTVLHQDWLNGKEYKCKVSNKALPAPIEKTISKAKGQPREPQVCTLPPSRDELTKNQVSLWCLVKGFYPSDIAVEWESNGQPENNYKTTPPVLDSDGSFFLYSKLTVDKSRWQQGNVFSCSVMHEALHNRYTQKSLSLSP
light: DIVMTQSPLSLPVTPGEPASISCRSSQSLVHSNRNTYLHWYQQKPGQAPRLLIYKVSNRFSGVPDRFSGSGSGTDFTLKISRVEAEDVGVYYCGQGTQVPYTFGQGTKLEIKRTVAAPSVFIFPPSDEQLKSGTASVVCLLNNFYPREAKVQWKVDNALQSGNSQESVTEQDSKDSTYSLSSTLTLSKADYEKHKVYACEVTHQGLSSPVTKSFNRGEC
notes: one-arm antibody
ratio of amounts bound (Z=Y/X vs CE115HA000): 0.91

B3: CE115HA000 K52S one-arm antibody (antibody, human IgG1, kappa, L234A L235A, N297A, name in Kabat numbering)
heavy: QVQLVESGGGVVQPGRSLRLSCAASGFTFSNAWMHWVRQAPGKGLEWVAQISAKSNNYATYYAESVKGRFTISRDDSKNSLYLQMNSLKTEDTAVYYCRYVHYGAYYGVDAWGQGTTVTVSSASTKGPSVFPLAPSSKSTSGGTAALGCLVKDYFPEPVTVSWNSGALTSGVHTFPAVLQSSGLYSLSSVVTVPSSSLGTQTYICNVNHKPSNTKVDKKVEPKSCDKTHTCPPCPAPEAAGGPSVFLFPPKPKDTLMISRTPEVTCVVVDVSHEDPEVKFNWYVDGVEVHNAKTKPREEQYASTYRVVSVLTVLHQDWLNGKEYKCKVSNKALPAPIEKTISKAKGQPREPQVYTLPPSRCELTKNQVSLSCAVKGFYPSDIAVEWESNGQPENNYKTTPPVLDSDGSFFLVSKLTVDKSRWQQGNVFSCSVMHEALHNHYTQKSLSLSPDYKDDDDK
chain: EPKSSDKTHTCPPCPAPELLGGPSVFLFPPKPKDTLMISRTPEVTCVVVDVSHEDPEVKFNWYVDGVEVHNAKTKPREEQYNSTYRVVSVLTVLHQDWLNGKEYKCKVSNKALPAPIEKTISKAKGQPREPQVCTLPPSRDELTKNQVSLWCLVKGFYPSDIAVEWESNGQPENNYKTTPPVLDSDGSFFLYSKLTVDKSRWQQGNVFSCSVMHEALHNRYTQKSLSLSP
light: DIVMTQSPLSLPVTPGEPASISCRSSQSLVHSNRNTYLHWYQQKPGQAPRLLIYKVSNRFSGVPDRFSGSGSGTDFTLKISRVEAEDVGVYYCGQGTQVPYTFGQGTKLEIKRTVAAPSVFIFPPSDEQLKSGTASVVCLLNNFYPREAKVQWKVDNALQSGNSQESVTEQDSKDSTYSLSSTLTLSKADYEKHKVYACEVTHQGLSSPVTKSFNRGEC
notes: one-arm antibody
ratio of amounts bound (Z=Y/X vs CE115HA000): 0.28

B4: CE115HA000 K52W one-arm antibody (antibody, human IgG1, kappa, L234A L235A, N297A, name in Kabat numbering)
heavy: QVQLVESGGGVVQPGRSLRLSCAASGFTFSNAWMHWVRQAPGKGLEWVAQIWAKSNNYATYYAESVKGRFTISRDDSKNSLYLQMNSLKTEDTAVYYCRYVHYGAYYGVDAWGQGTTVTVSSASTKGPSVFPLAPSSKSTSGGTAALGCLVKDYFPEPVTVSWNSGALTSGVHTFPAVLQSSGLYSLSSVVTVPSSSLGTQTYICNVNHKPSNTKVDKKVEPKSCDKTHTCPPCPAPEAAGGPSVFLFPPKPKDTLMISRTPEVTCVVVDVSHEDPEVKFNWYVDGVEVHNAKTKPREEQYASTYRVVSVLTVLHQDWLNGKEYKCKVSNKALPAPIEKTISKAKGQPREPQVYTLPPSRCELTKNQVSLSCAVKGFYPSDIAVEWESNGQPENNYKTTPPVLDSDGSFFLVSKLTVDKSRWQQGNVFSCSVMHEALHNHYTQKSLSLSPDYKDDDDK
chain: EPKSSDKTHTCPPCPAPELLGGPSVFLFPPKPKDTLMISRTPEVTCVVVDVSHEDPEVKFNWYVDGVEVHNAKTKPREEQYNSTYRVVSVLTVLHQDWLNGKEYKCKVSNKALPAPIEKTISKAKGQPREPQVCTLPPSRDELTKNQVSLWCLVKGFYPSDIAVEWESNGQPENNYKTTPPVLDSDGSFFLYSKLTVDKSRWQQGNVFSCSVMHEALHNRYTQKSLSLSP
light: DIVMTQSPLSLPVTPGEPASISCRSSQSLVHSNRNTYLHWYQQKPGQAPRLLIYKVSNRFSGVPDRFSGSGSGTDFTLKISRVEAEDVGVYYCGQGTQVPYTFGQGTKLEIKRTVAAPSVFIFPPSDEQLKSGTASVVCLLNNFYPREAKVQWKVDNALQSGNSQESVTEQDSKDSTYSLSSTLTLSKADYEKHKVYACEVTHQGLSSPVTKSFNRGEC
notes: one-arm antibody
ratio of amounts bound (Z=Y/X vs CE115HA000): 0.22
